Substrate: O=P(O)(O)O[C@H]1[C@H](O)[C@@H](OP(=O)(O)O)[C@H](OP(=O)(O)O)[C@@H](OP(=O)(O)O)[C@H]1O
Experiment: purified protein
Conditions: Mg2+

B1: SHIP2 (SH2 (Src homology 2)-domain-containing inositol-phosphatase-2) (Homo sapiens) (protein)
chain: DEPDMISVFIGTWNMGSVPPPKNVTSWFTSKGLGKTLDEVTVTIPHDIYVFGTQENSVGDREWLDLLRGGLKELTDLDYRPIAMQSLWNIKVAVLVKPEHENRISHVSTSSVKTGIANTLGNKGAVGVSFMFNGTSFGFVNCHLTSGNEKTARRNQNYLDILRLLSLGDRQLNAFDISLRFTHLFWFGDLNYRLDMDIQEILNYISRKEFEPLLRVDQLNLEREKHKVFLRFSEEEISFPPTYRYERGSRDTYAWHKQKPTGVRTNVPSWCDRILWKSYPETHIICNSYGCTDDIVTSDHSPVFGTFEVGVTSQFISKKGLSKTSDQAYIEFESIEAIVKTASRTKFFIEFYSTCLEEYKKSFENDAQSSDNINFLKVQWSSRQLPTLKPILADIEYLQDQHLLLTVKSMDGYE
Km: 215 ± 28 µM

Reference: publication PMC3355655
